Assay results published in PMC11415702.

Biological target: Complement factor H (CFH) (human, UniProt P08603 19-1231)
Experiment: interdigitated electrode current-volt sandwich assay

Complement factor H (CFH), sequence (P08603 19-1231): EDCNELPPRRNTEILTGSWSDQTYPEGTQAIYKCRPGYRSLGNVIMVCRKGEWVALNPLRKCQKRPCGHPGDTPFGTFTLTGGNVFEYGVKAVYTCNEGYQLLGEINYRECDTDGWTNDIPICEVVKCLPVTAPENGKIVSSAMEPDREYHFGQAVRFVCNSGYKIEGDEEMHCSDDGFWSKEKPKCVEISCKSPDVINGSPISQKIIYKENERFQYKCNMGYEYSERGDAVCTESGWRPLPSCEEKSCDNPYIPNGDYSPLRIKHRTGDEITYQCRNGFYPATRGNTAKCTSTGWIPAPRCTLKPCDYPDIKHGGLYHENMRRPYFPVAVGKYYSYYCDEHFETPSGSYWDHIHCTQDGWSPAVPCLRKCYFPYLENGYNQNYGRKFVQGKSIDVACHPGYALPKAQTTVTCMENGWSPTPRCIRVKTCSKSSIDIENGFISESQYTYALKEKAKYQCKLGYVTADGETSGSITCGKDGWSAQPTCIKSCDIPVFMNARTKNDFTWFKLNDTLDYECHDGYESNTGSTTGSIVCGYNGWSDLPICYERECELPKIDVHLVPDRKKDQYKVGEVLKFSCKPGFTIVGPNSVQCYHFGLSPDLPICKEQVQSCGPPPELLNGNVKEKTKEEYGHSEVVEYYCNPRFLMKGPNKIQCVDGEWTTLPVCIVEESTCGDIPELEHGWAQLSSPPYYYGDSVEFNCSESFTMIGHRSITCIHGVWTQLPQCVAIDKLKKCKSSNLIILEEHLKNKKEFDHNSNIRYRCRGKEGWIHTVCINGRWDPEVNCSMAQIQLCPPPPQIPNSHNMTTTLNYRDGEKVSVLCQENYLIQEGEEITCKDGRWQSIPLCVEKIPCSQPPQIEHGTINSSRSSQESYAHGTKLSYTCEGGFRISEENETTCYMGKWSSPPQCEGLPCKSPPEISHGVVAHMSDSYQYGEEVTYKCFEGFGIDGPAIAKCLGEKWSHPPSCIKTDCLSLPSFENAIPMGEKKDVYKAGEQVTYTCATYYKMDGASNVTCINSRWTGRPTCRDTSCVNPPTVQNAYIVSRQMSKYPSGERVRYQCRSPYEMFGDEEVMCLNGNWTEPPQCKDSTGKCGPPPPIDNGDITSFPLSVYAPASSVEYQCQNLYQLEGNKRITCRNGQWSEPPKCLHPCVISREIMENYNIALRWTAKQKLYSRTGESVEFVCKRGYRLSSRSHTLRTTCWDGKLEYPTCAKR

B1: anti-tau DNA aptamer (ssDNA)
DNA: GCGGAGCGTGGCAGG
modifications: biotin (end not stated)
  binding result: no binding
